Results from publication PMC3663649 (2013).

Experiments:
[1] = biological target: T1, H3KC36me3 nucleosomes (recombinant MLA nucleosomes reconstituted on 601 DNA) (Drosophila, UniProt P02299 1-136; P84040 1-103; P84051 1-124; P02283 1-123, H3KC36me3, cysteine at 36 alkylated to a thioether mimic of trimethyl-lysine (H3KC36me3)); experiment: EMSA titration 2 (bottom)
[2] = biological target: T1, H3KC36me3 nucleosomes (recombinant MLA …); experiment: EMSA titration 1 (top)

Kd [1]: 600 nM
Kd [2]: 400 nM
B1: GST-PWWP (PSIP1-PWWP domain, residues 3 to 100, GST fusion) (domain or fragment)
chain: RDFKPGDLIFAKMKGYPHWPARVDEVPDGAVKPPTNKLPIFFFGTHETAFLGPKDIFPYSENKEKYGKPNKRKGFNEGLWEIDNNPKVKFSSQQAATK
